From PMC5505470
Read-outs that look alike come from different tables or passages of the source.

Columns and labels:
PTBP1-RRM34 = PTBP1-RRM34 (UniProt P26599-1 324-531); test: NMR
PTBP1-RRM1;PTBP1-RRM34 = PTBP1-RRM1;PTBP1-RRM34 (;, UniProt P26599-1;P26599-1 41-163;324-531, |); test: NMR
PTBP1-RRM1 [1] = molecular target: T1, PTBP1-RRM1 (UniProt P26599-1 41-163); test: NMR
PTBP1-RRM2 [2] = molecular target: T2, PTBP1-RRM2 (UniProt P26599-1 178-317, C250S;C251S); test: NMR solution structure model
PTBP1-RRM1 [3] = molecular target: T1, PTBP1-RRM1; test: NMR; remark: listed apart in the source
PTBP1-RRM2 [4] = molecular target: T2, PTBP1-RRM2; test: NMR
PTBP1 full length = PTBP1 full length (UniProt P26599-1 1-531, C250S;C251S); test: UV crosslinking CLIR-MS/MS

B1: EMCVDElink (structured_RNA)
RNA: GGAUACUGGCCGAAGCCGCUUGGAAUAAGGCCGGUGUGCGUUUGUCUAUAUGUUAUUUUCCAC
binding result (PTBP1-RRM34): binds | binding result (PTBP1-RRM1;PTBP1-RRM34): binds

GGAUAUUGCCGUCUUUUGGCAAUGUCC (structured_RNA) [EMCVF]
binding result (PTBP1-RRM1 [1]): binds | binding result (PTBP1-RRM2 [2]): binds

GGAGCGUUUGUCUAUAUGUUCC (structured_RNA) [EMCVE]
binding result (PTBP1-RRM1 [3]): binds | binding result (PTBP1-RRM2 [4]): binds

B2: EMCVDElinkF (structured_RNA)
RNA: GGAUACUGGCCGAAGCCGCUUGGAAUAAGGCCGGUGUGCGUUUGUCUAUAUGUUAUUUUCCACCAUAUUGCCGUCUUUUGGCAAUGUG
binding result (PTBP1 full length): binds
